Data from patent US8895526B2, “Identification of RNAI targets and use of RNAI for rational therapy of chemotherapy-resistant leukemia and other cancers” (Cold Spring Harbor Laboratory, priority 2009, dated 2014).

Key:
HCT116 cells = experiment: HCT116 proliferation assay: cell counts of shRNA-transduced cultures; type: cell-based, human; conditions: 5 days post-infection; normalized to EBNA1mi1666 and Lucifmi203 cultures
Protocol: HCT116 cultures in 24-well plates were infected separately with amphotropic retrovirus encoding 254 different shRNAs targeting 83 cell cycle and/or E2F regulated genes. On day 1 following infection each culture was suspended in media containing 1.5 μg/mL puromycin to select for cells transduced with the hairpins, then seeded to 6-well plates. On day 5 following infection, cells in each culture were suspended in media and counted using a hemacytometer. Results for each culture were normalized to the average of the number of cells counted in cultures transduced with hairpins targeting either of two different genes not endogenous to HCT116 cells (EBNA1 and Ff-luciferase).
About 24 hours prior to infection, 150,000 HCT116 cells were seeded per well of a 24-well plate in 0.4 mL DMEM+10% FBS. At the time of the first round of infection, culture media was aspirated from each HCT116 culture and 0.5 mL media containing virus, obtained from ˜36-hour post-transfection packaging cell culture as described above, was added to each HCT116 culture. Each HCT116 culture was infected with virus encoding a particular shRNA. […]
About 24 hours after the second round of infection of the HCT116 cultures, cells from each culture were suspended and seeded to 6-well plates in 2 mL DMEM+10% FBS+1.5 μg/mL puromycin per well. […] Following two more days of growth (day 5 post-infection), cells in each culture were suspended in complete DMEM and cell numbers per culture were counted using a hemacytometer. […]
In each experiment, HCT116 cells were also transduced with hairpins against EBNA1 (EBNA1mi1666) and Ff-luciferase (lucifmi203). […] Similar to cultures transduced with other shRNAs, on day 5 post-infection, HCT116 cells in cultures transduced with either EBNA1mi1666 or Lucifmi203 were suspended and counted using a hemacytometer. […]
The average cell number in HCT116 cultures transduced with EBNA1mi1666 and Lucifmi203 was calculated for each experiment and cell numbers in cultures transduced with the other shRNAs in the given experiment were normalized to this value. […]

[1] = system: immortalized murine embryonic fibroblasts (Mef); experiment: Pooled negative selection RNAi screening (deep sequencing); type: cell-based; conditions: deep sequencing reads, on dox compared to initial representation
Procedure, shortened: (§1)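 A pool of 1230 tet-regulated shRNAs (TRMPV-type) was retrovirally transduced at mostly single copy and ~1000-fold representation into tet-on MLL/AF9+Nras AML cells or immortalized murine embryonic fibroblasts, then cultured on or off doxycycline. shRNA-expressing cells were FACS-sorted, and shRNA representation was quantified by PCR and deep sequencing of genomic DNA, with depletion on dox compared against t0 and off dox.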

[2] = system: tet-on competent MLL/AF9+Nras AML; experiment: as above; type: cell-based, mouse; conditions: deep sequencing reads, On Dox compared to T0
Procedure, shortened: as §1

[3] = system: normal hematopoietic cells; experiment: Dual-color competition assay of hematopoietic reconstitution in vivo; conditions: 4 weeks after transplantation, LMN-GFP vs mCherry control
Protocol: LMN vectors harboring shRNAs are transduced into fetal livers. Infected cells are subsequently transplanted into lethally irradiated recipients. This assay compares the relative contribution of the experimental shRNA (in an LMN vector harboring a GFP marker) to a control, neutral shRNA (in an LMN vector harboring a red fluorescent protein marker (mCherry)). The effect of the experimental shRNA on hematopoesis is assessed by the ratio of these two markers in subsets of peripheral blood cells, or bone marrow or spleen, measured at 4 weeks.
As an additional verification that therapy resistant AML leukemias harbor a unique sensitivity to inhibition of the identified epigenetic pathways, the influence of the epigenetics shRNAs on normal hematopoiesis was also examined in vivo following retroviral transduction of LMN (MSCV-miR30/shRNA-PGK-Neo-IRES-GFP; constructed by inserting a miR30-cassette and a PGK-NeomycinR-IRES-GFP cassette in the MSCV-backbone (Clontech)) into E13.5 fetal livers and subsequent transplantation of infected cells into lethally irradiated recipients (FIG. 27). This assay compares the relative contribution of the experimental shRNA vector (linked with GFP) to control, neutral shRNA LMN vector that harbors the red fluorescent protein (mCherry). At 4 weeks following transplantation of the mixed GFP+ and mCherry+ cells into recipient animals, the ratio of these two colors is measured in subsets of peripheral blood cells of various hematopoietic lineages or in bone marrow and spleens by co-staining with surface markers (e.g. Mac1, Gr1 for myeloid, B220 for B-lymphoid).

B1: mi550: shRNA targeting ORC1, SEQ ID NO: 17 (nucleic acid)
chain: TGCTGTTGACAGTGAGCGCGGAAATATTCTGGTATGATTATAGTGAAGCCACAGATGTATAATCATACCAGAATATTTCCTTGCCTACTGCCTCGGA
With B1 the “Cell # in culture/average cell number in negative control cultures” value (“Cell # in culture/average cell number” below) (HCT116 cells) was 0.8719.

B2: Orc2mil903: shRNA targeting ORC2, SEQ ID NO: 18 (nucleic acid)
chain: TGCTGTTGACAGTGAGCGAGGAACTGATGGAGTAGAGTATTAGTGAAGCCACAGATGTAATACTCTACTCCATCAGTTCCCTGCCTACTGCCTCGGA
B2 was tested, and the “Cell # in culture/average cell number” value (HCT116 cells) was 0.7115.

B3: Ptgs2.3711: neutral control shRNA, SEQ ID NO: 212 (nucleic acid)
chain: TGCTGTTGACAGTGAGCGCAACGTTCATGGATAAATTCTATAGTGAAGCCACAGATGTATAGAATTTATCCATGAACGTTATGCCTACTGCCTCGGA
In the case of B3, the “Fold depletion in Mef” value [1] is reported as 1.46 Fold and the “Fold depletion in AML” value [2] is reported as 1.38 Fold.

B4: Mn1.5760: neutral control shRNA, SEQ ID NO: 207 (nucleic acid)
chain: TGCTGTTGACAGTGAGCGCTTGGTTTAGCAGGAAGAATAATAGTGAAGCCACAGATGTATTATTCTTCCTGCTAAACCAAATGCCTACTGCCTCGGA
In the case of B4, the “Fold depletion in Mef” value [1] is reported as 0.91 Fold and the “Fold depletion in AML” value [2] is reported as 0.38 Fold.

B5: BRAF.3750: neutral control shRNA, SEQ ID NO: 191 (nucleic acid)
chain: TGCTGTTGACAGTGAGCGCTAGCATAATGACAATTATTTATAGTGAAGCCACAGATGTATAAATAATTGTCATTATGCTAATGCCTACTGCCTCGGA
With B5 the “Fold depletion in Mef” value [1] was 1.08 Fold and the “Fold depletion in AML” value [2] was 0.76 Fold.

B6: Eed.1829: shRNA targeting Eed; probably Eed.1820, SEQ ID NO: 227 (nucleic acid)
guide: TGCTGTTGACAGTGAGCGCTAGAAGTAATGTATCTTGCTATAGTGAAGCCACAGATGTATAGCAAGATACATTACTTCTATTGCCTACTGCCTCGGA
In the case of B6, the “impact on proliferation of normal hematopoietic cells in vivo” value (shortened to “impact on proliferation”) [3] is reported as “little, if any impact”.

B7: Orc2mil981: shRNA targeting ORC2, SEQ ID NO: 19 (nucleic acid)
chain: TGCTGTTGACAGTGAGCGAGAGGCTTGAAGCTTTCCTTTATAGTGAAGCCACAGATGTATAAAGGAAAGCTTCAAGCCTCCTGCCTACTGCCTCGGA
B7 was tested, and the “Cell # in culture/average cell number” value (HCT116 cells) was 0.8496.

B8: Trp53.1224: neutral control shRNA, SEQ ID NO: 214 (nucleic acid)
chain: TGCTGTTGACAGTGAGCGCCCACTACAAGTACATGTGTAATAGTGAAGCCACAGATGTATTACACATGTACTTGTAGTGGATGCCTACTGCCTCGGA
In the case of B8, the “Fold depletion in Mef” value [1] is reported as 0.84 Fold and the “Fold depletion in AML” value [2] is reported as 0.10 Fold.

B9: Ptgs2.2058: neutral control shRNA, SEQ ID NO: 210 (nucleic acid)
chain: TGCTGTTGACAGTGAGCGCCCGGTGTTTGTCCTTTAAATATAGTGAAGCCACAGATGTATATTTAAAGGACAAACACCGGATGCCTACTGCCTCGGA
B9 was tested, and the “Fold depletion in Mef” value [1] was 1.27 Fold and the “Fold depletion in AML” value [2] was 1.78 Fold.

B10: BRAF.3826: neutral control shRNA, SEQ ID NO: 192 (nucleic acid)
chain: TGCTGTTGACAGTGAGCGCCCCATTGTTTCTTCCAACTTATAGTGAAGCCACAGATGTATAAGTTGGAAGAAACAATGGGATGCCTACTGCCTCGGA
With B10 the “Fold depletion in Mef” value [1] was 0.87 Fold and the “Fold depletion in AML” value [2] was 0.92 Fold.

B11: Suz12.1676: shRNA, SEQ ID NO: 75 (nucleic acid)
guide: TGCTGTTGACAGTGAGCGATAGGATAGATGTTTCAATCAATAGTGAAGCCACAGATGTATTGATTGAAACATCTATCCTAGTGCCTACTGCCTCGGA
For B11, the “impact on proliferation” value [3] was “little, if any impact”.

B12: Smarcd1.1858: shRNA, SEQ ID NO: 70 (nucleic acid)
guide: TGCTGTTGACAGTGAGCGCTAGGACCTCTAGATAGTGTTATAGTGAAGCCACAGATGTATAACACTATCTAGAGGTCCTATTGCCTACTGCCTCGGA
B12 was tested, and the “impact on proliferation” value [3] was “little, if any impact”.

B13: Kit.1241: neutral control shRNA, SEQ ID NO: 194 (nucleic acid)
chain: TGCTGTTGACAGTGAGCGATTCCGTGACATTCAACGTTTATAGTGAAGCCACAGATGTATAAACGTTGAATGTCACGGAAGTGCCTACTGCCTCGGA
For B13, the “Fold depletion in Mef” value [1] was 0.99 Fold and the “Fold depletion in AML” value [2] was 1.88 Fold.

B14: Ptgs2.284: neutral control shRNA, SEQ ID NO: 211 (nucleic acid)
chain: TGCTGTTGACAGTGAGCGAAAGAATCAAATTACTGCTGAATAGTGAAGCCACAGATGTATTCAGCAGTAATTTGATTCTTGTGCCTACTGCCTCGGA
For B14, the “Fold depletion in Mef” value [1] was 1.21 Fold and the “Fold depletion in AML” value [2] was 0.34 Fold.

B15: Renilla.713: neutral control shRNA, SEQ ID NO: 213 (nucleic acid)
chain: TGCTGTTGACAGTGAGCGCAGGAATTATAATGCTTATCTATAGTGAAGCCACAGATGTATAGATAAGCATTATAATTCCTATGCCTACTGCCTCGGA
With B15 the “Fold depletion in Mef” value [1] was 1.02 Fold and the “Fold depletion in AML” value [2] was 1.29 Fold.

B16: Mn1.5864: neutral control shRNA, SEQ ID NO: 208 (nucleic acid)
chain: TGCTGTTGACAGTGAGCGCATCGCTATTGCACATGTATAATAGTGAAGCCACAGATGTATTATACATGTGCAATAGCGATTTGCCTACTGCCTCGGA
For B16, the “Fold depletion in Mef” value [1] was 1.09 Fold and the “Fold depletion in AML” value [2] was 0.61 Fold.

B17: BRAF.5053: neutral control shRNA, SEQ ID NO: 193 (nucleic acid)
chain: TGCTGTTGACAGTGAGCGCTAGGGTGATGTCTCACTTGAATAGTGAAGCCACAGATGTATTCAAGTGAGACATCACCCTATTGCCTACTGCCTCGGA
B17 was tested, and the “Fold depletion in Mef” value [1] was 0.33 Fold and the “Fold depletion in AML” value [2] was 0.66 Fold.

B18: Ptgs2.1082: neutral control shRNA, SEQ ID NO: 209 (nucleic acid)
chain: TGCTGTTGACAGTGAGCGCCAAGATAGTGATCGAAGACTATAGTGAAGCCACAGATGTATAGTCTTCGATCACTATCTTGATGCCTACTGCCTCGGA
With B18 the “Fold depletion in Mef” value [1] was 0.51 Fold and the “Fold depletion in AML” value [2] was 0.51 Fold.
